Changes are numbered by the printed parent chain.
B1: huMAb2-3 (antibody, human IgG1, kappa, V domains shown)
VH: EVQLQESGPGLVKPGGSLSLSCAASGFVFSSYDMSWVRQTPERGLEWVAYISSGGGITYAPSTVKGRFTVSRDNAKNTLYLQMNSLTSEDTAVYYCAAHYFGSSGPFAYWGQGTLVTVSS
VL: DIQMTQSPASLSASVGDRVTITCRASENIFSYLAWYQQKPGKSPKLLVYNTRTLAEGVPSRFSGSGSGTDFSLTISSLQPEDFATYYCQHHYGTPFTFGSGTKLEIKR
notes: Humanized MAb2, human IgG1 / Ckappa; also called MAb2_VL1cVH1a-IgG1
B2: huMAb2-1 (antibody, V domains shown)
VH: B1 VH with G44R, A60F, V93I, S120A
VL: DIQMTQSPASLSASVGDTVTITCRASENIFSYLAWYQQKPGKSPKLLVYNTKTLAEGVPSRFSGSGSGTQFSLTISSLQPEDFGSYYCQHHYGTPFTFGSGTKLEIK
notes: Humanized MAb2 (VL1 + VH1) fused to human IgG1 and human Ckappa constant domains; also called MAb2_VL1VH1-IgG1; MAb2VL1VH1-IgG1
B3: huMAb2-2 (antibody, V domains shown)
VH: B1 VH
VL: B2 VL with T18R, Q70D, G84A, S85T
notes: Humanized MAb2 (VL1a + VH1a) fused to human IgG1 and human Ckappa constant domains; also called MAb2_VL1aVH1a-IgG1; MA2_VL1aVH1a-IgG1
B4: huMAb2-4 (antibody, human IgG1, kappa, V domains shown)
VH: B1 VH with G44R, A60F, V93I, S120A
VL: B1 VL with R18T, D70Q, A84G, T85S
notes: Humanized MAb2, human IgG1 / Ckappa; also called MAb2_VL1d VH1-IgG1; MAb2_VL1dVH1-IgG1
B5: chMAb2 (antibody, human IgG1, kappa, V domains shown)
VH: EVQLQESGGVLVKPGGSLKLSCAASGFVFSSYDMSWVRQTPEKRLEWVAYISSGGGITYFPDTVQGRFTVSRDNAKNTLYLQMNSLKSEDTAIYYCAAHYFGSSGPFAYWGQGTLVTVSA
VL: B1 VL with D17E, R18T, P40Q, K45Q, R52K, D70Q, T74K, S76N, A84G, T85S
notes: Chimeric, human IgG1, Ck isotype; also called MAb2-IgG1; chimeric MAb2
B6: antibody MAb4 (antibody, IgG1, V domains shown)
VH: EVQLVESGGGLVKPGGSLKLSCAASGFTFSSYDMSWVRQTPEKRLEWVAFISSYGGRTYYADTVKGRFTISRDNAKNTLYLQMSSLKSEDTAMFYCAAHYFGTSGPFAYWGQGTLVTVSA
VL: DIQMTQSPASLSASVGETVTITCRASENIYSYFAWYQQKQGKSPQLLVYNAKILAEGVPSRFSGSGSGTQFSLKINSLQPEDFGTYYCQHHYGIPFTFGSGTKLELK
notes: Murine monoclonal from hybridoma, IgG1, kappa
B7: antibody MAb5 (antibody, IgG1, V domains shown)
VH: ELQLVESGGVLVKPGGSLKLSCAASGFAFSSYDMSWVRQTPEKRLEWVTYINSGGGITYYPDTVKGRFTISRDNARNTLYLQMSSLKSEDTAIYYCTAHYFGSSGPFAYWGQGTLVTVSA
VL: B6 VL with F33L, I53T, A55T, T85S, I94T, L106I
notes: as for B6
B8: antibody MAb1 (antibody, IgG1, V domains shown)
VH: EVMLVESGGGLVKPGGSLKLSCAASGFTFSSYAMSWVRQTPEKRLEWVATISSGGSYIYYLDSVKGRFTISRDNAKNTLYLQMSSLRSEDTAMYYCARPAYYGNPAMDYWGQGTSVTVSS
VL: DILMTQSQKFMSTSVGDRVSVTCKASQNVGTNVAWYQQKPGQSPKPLIYSASYRYSGVPDRFTGSGSGTDFTLTISNVQSEDLAEYFCQQYNSYPLYTFGGGTKLEIK
B9: antibody MAb3 (antibody, IgG1, V domains shown)
VH: EVKLVESGGGLVKPGGSLTLPCAASGFTFSRYAMSWVRQTPEKRLEWVASISSGGDTYYPDSVKGRFTVSRDNARNILFLQMSSLRSEDTGMYYCARVNYYDSSFLDWWGQGTTLTVSS
VL: B8 VL with L3V, K9R, S14L, V15E, P46A, S93N
notes: as for B6

What follows are binders tested against T1, hCEACAM5, human CEACAM5 ECD (35-685) (human, UniProt P06731 35-685) (assay: ELISA).
T1 construct: produced in HEK293; also called human CEACAM5 protein; human CEACAM5 extracellular domain
T1 sequence: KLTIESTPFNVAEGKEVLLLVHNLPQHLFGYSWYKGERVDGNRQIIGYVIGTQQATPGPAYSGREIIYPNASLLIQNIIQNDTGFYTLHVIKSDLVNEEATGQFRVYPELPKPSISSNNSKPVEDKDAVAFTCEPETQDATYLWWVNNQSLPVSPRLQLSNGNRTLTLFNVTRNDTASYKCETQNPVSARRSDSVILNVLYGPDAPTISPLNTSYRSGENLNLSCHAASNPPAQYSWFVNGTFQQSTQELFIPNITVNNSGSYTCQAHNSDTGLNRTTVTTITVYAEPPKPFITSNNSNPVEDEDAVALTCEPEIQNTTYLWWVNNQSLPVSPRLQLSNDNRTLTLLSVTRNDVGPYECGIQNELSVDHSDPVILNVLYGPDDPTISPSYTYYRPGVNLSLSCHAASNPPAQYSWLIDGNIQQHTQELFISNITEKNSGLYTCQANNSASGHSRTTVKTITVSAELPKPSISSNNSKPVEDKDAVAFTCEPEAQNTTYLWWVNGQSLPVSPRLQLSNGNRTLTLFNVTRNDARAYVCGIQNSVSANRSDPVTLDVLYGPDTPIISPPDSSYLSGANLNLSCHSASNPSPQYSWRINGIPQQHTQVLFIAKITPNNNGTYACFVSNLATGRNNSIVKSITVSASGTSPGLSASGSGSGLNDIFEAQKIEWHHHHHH
In the case of B1, the EC50 is reported as 0.18 nM.
B2 was tested, and the EC50 was 0.22 nM.
Work on B3 yielded an EC50 of 0.2 nM.
For B4, the EC50 was 0.22 nM.
With B5 the EC50 was 0.16 nM.

Biological target: T2, cCEACAM5, M. fascicularis CEACAM5 ECD (35-688) (Macaca fascicularis)
T2 construct: ECD followed by a 24 amino acid extension containing a His-Tag; also called cynomolgus CEACAM5; monkey CEACAM5
T2 chain: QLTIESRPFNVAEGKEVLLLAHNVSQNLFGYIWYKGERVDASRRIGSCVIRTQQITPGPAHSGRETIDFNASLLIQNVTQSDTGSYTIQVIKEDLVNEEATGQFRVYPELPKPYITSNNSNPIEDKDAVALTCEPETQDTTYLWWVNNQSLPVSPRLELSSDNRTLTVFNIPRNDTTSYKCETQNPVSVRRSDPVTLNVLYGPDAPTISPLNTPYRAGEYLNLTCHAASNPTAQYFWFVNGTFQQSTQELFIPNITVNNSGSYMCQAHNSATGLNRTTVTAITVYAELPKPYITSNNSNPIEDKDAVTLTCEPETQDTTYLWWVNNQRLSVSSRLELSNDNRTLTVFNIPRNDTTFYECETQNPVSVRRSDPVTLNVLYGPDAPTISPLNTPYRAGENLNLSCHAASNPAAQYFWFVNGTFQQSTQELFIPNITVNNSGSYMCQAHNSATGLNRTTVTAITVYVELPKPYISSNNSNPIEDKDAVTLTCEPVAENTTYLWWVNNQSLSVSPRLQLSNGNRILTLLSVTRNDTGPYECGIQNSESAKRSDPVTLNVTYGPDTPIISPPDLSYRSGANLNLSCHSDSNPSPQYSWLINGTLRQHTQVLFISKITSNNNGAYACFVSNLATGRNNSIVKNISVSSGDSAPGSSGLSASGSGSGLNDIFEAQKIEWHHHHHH
Assay: ELISA
With B1 the EC50 was 0.19 nM.
In the case of B2, the EC50 is reported as 0.2 nM.
B3 was tested, and the EC50 was 0.17 nM.
Binder B4 has an EC50 of 0.17 nM.
Work on B5 yielded an EC50 of 0.17 nM.

These binders were tested against T3, human CEACAM5 expressed on the surface of tumor cells (human, UniProt P06731 35-685) (assay: flow cytometry on CR-IGR-034P primary colon tumor cells).
T3 construct: Endogenous CEACAM5 of human tumor cells; also called hCEACAM5 on MKN45 cells; CEACAM5 on CR-IGR-034P primary colon tumor cells
T3 sequence: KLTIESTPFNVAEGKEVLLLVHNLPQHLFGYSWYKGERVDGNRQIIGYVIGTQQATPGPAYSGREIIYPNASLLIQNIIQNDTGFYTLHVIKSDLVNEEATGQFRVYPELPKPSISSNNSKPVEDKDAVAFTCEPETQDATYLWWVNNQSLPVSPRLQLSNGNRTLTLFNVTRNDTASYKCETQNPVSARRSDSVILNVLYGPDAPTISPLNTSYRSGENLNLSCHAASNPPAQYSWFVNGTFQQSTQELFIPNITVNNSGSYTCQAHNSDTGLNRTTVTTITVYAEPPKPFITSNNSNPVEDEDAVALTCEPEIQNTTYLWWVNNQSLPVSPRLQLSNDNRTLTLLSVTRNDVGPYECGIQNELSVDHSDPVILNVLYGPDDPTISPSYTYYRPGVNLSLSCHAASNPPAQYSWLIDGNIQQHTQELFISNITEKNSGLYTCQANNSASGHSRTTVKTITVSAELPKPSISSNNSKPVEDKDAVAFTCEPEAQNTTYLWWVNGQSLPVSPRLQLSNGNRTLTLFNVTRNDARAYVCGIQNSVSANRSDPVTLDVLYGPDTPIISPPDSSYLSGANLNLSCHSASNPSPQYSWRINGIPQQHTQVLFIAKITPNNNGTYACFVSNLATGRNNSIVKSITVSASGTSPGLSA
Procedure: (§1) Advanced human primary colon tumor CR-IGR-034P (Julien et al., Clin Cancer Res Oct. 1, 2012 18:5314-5328) was obtained from Patient-derived xenograft in mice. Tumor CR-IGR-034P was enzymatically dissociated using collagenase Type IV (Invitrogen; #17104-019) and deoxyribonuclease I (Invitrogen; #18047-019) for 1 h at […], Cell viability was estimated by Viacount application using Guava® easyCyte™ 8HT Flow Cytometry System. […] 100 μL/well of goat anti-mouse IgG conjugated with Alexa647 (Invitrogen; # A2135) or goat anti-human IgG conjugated with Alexa488 (Invitrogen; # A11013) was added for 45 min at 4° C. and washed three times with PBS 1% BSA. The antibody binding was evaluated after centrifugation and resuspension of cells by adding 200 pliwell PBS 1% BSA and read using Guava® easyCyte™ 8HT Flow Cytometry System. Apparent KD and EC50 values were estimated using BIOST@T-BINDING and BIOST@T-SPEED softwares, respectively.
Binder B6 has an EC50 of 0.2 nM.
With B7 the EC50 was 1.4 nM.
With B8 the EC50 was 1 nM.
Work on B9 yielded an EC50 of 2.8 nM.

The binders below were run against T3, human CEACAM5 expressed on the surface … (assay: apparent KD, flow cytometry on CR-IGR-034P primary colon tumor cells).
Procedure: as §1
With B6 the Kd was 0.16 nM.
B7 gave a Kd of 0.5 nM.
In the case of B8, the Kd is reported as 1.92 nM.
B9 gave a Kd of 1.01 nM.
